Measured values reported in paper PMC4245959, “Molecular recognition of RhlB and RNase D in the Caulobacter crescentus RNA degradosome” (Nucleic Acids Research, 2014).

B3: C. crescentus RNase E catalytic domain, residues 1–575, N-terminally 6xHis tagged (domain or fragment, Caulobacter crescentus, UniProt Q9A749 1-575, looked up)
chain: MSKKMLIDAAHAEETRVVVVDGTRVEEFDFESQTRKQLRGNIYLAKVTRVEPSLQAAFIEYGGNRHGFLAFNEIHPDYYQIPVADREALMRDDSGDDEDDTPISRRASGGDDEDDVNGGDRAVDDDDDDVEEELARRKRRLMRKYKIQEVIRRRQIMLVQVVKEERGNKGAALTTYLSLAGRYGVLMPNTARGGGISRKITAVTDRKRLKSVVQSLDVPQGMGLIVRTAGAKRTKAEIKRDYEYLLRLWENIRENTLHSIAPALIYEEEDLVKRAIRDMYDKDLDGIWVEGDAGYKEARDFMRMLMPSQAKKVFNYRDPTPLFVKNKIEDHLAQIYSPVVPLRSGGYLVINQTEALVAIDVNSGKATRERNIEATALKTNCEAAEEAARQLRLRDLAGLIVIDFIDMDEAKNNRTVEKVLKDALKDDRARIQMGKISGFGLMEISRQRRRTGVLEGTTHVCEHCEGTGRVRSVESSALAALRAVEAEALKGSGSVILKVSRSVGLYILNEKRDYLQRLLTTHGLFVSVVVDDSLHAGDQEIERTELGERIAVAPPPFVEEDDDFDPNAYDDEEEE
notes: tetramer by AUC; also called CcNTD

Columns and labels:
[1] = target: fragment of C. crescentus RNase E containing the S1 and 5′-sensor sub-domains, residues 1–274 (Caulobacter crescentus); test: AUC; sedimentation velocity of the co-expressed, co-purified CcNTD(1–274)–RhlB complex at 2 mg/ml in 20-mM Tris pH 7.5, 200-mM NaCl, 20°C, 50 000 rpm
[2] = target: B3; test: AUC; sedimentation velocity of the SEC fractions of the CcNTD(1–575)–RhlB complex; continuous molar mass distribution; settings: both partners purified
[3] = target: the molecule itself; test: AUC; recombinant RNase D alone; single species of 85.9 kDa
[4] = target: the molecule itself; test: AUC; sedimentation velocity, CcNTD(1–575) alone at 2 mg/ml in NTD buffer, 20°C, 40 000 rpm

Molecule: RhlB co-expressed with CcNTD_(1–274) (enzyme)
- stoichiometry N [1]: 1

B1: recombinantly expressed and purified RhlB (enzyme, Caulobacter crescentus, UniProt Q9A779 1-517, looked up)
chain: MTEFTDLGLSPTTLQAVADTGYTTATPIQAQAIPVALAGQDVLGIAQTGTGKTAAFTLPLIDRLQSGRAKARMPRALVIAPTRELADQVAASFEKYAKGTKLSWALLIGGVSFGDQEKKLDRGVDVLIATPGRLLDHFERGKLLMTGVQFLVVDEADRMLDMGFIPDIERIFKMTPPKKQTLFFSATMPPEITRLTKQFLRDPVRIEVARPATTNANITQLLVKVPSSDPKAKRLALRALIEKAGIETGIVFCNRKTEVDIVAKSLKVHGYDAAPIHGDLDQTQRMKTLADFRSGALKILVASDVAARGLDIPAVSHVFNYDVPHHADDYVHRIGRTGRAGRTGITYMLVTPADDKGFDKVIKLIGSTPDEEKLDLDYSNAVTVKREGDRKRGGRDRDRGERGERSERPARGRGRGRERAEETVEAPAEAVAEIVDTPAMAEERPARERRPRREREPKAAAPAPTAVEAERPARAERPERPVRGVQPVRDRDDDDRRVVGFGSDVPAFLARPPRGAK
notes: DEAD-box RNA helicase RhlB (cc1847) of Caulobacter crescentus; monomeric in solution; source: recombinantly expressed and purified
- stoichiometry N [2]: 2 RhlB monomers per CcNTD_(1–575) tetramer

B2: recombinant RNase D with an N-terminal hexa-histidine tag (enzyme, Caulobacter crescentus (CB15), UniProt Q9A7L8 1-389, looked up)
chain: MKLITTTAELAAFCNGLAGEPFVAVDTEFMRETTYWPKLCLIQVASPTQEAVIDPLADNIDLEPLLVVMRDERILKVFHAARQDVEIFNNLKAMPKPLFDTQVAGMAAGFGEQIAYDALVRQMLRIEIDKSSRFTDWARRPLTDAQLSYALADVTHLAKLFPILRERLETSGRLAWVEEEMTAISDPAAYDVDPEKAWRRLRPRKTAPKYLAVFKAVAAWRERTAQNRDQPRGRILKDEAIDELATQTPGNLEALNNLRGVPKGFGGSKFGPDLLAAIKDALADPEGYAPVVDKPGPPPPQNAGAVVELLKVLLKARAEEAGVASKLIATVSDLEKIAADDNATTPALTGWRREAFGSDALKIKRGELALVLDGARVRVVEVRRAPKND
notes: ribonuclease D; the RNase D gene (cc1704) amplified from C. crescentus (CB15) genomic DNA into pETDuet-1; also called 6xHis-tagged RNase D; not shown: His6, N-terminal, kept
- stoichiometry N [3]: 2

Molecule: B3
- stoichiometry N [4]: 4
